Source: the supplement of paper PMC10567573

B1: TTC32 (parent)
chain: YSAYIRRCACAASSDESPGSKCSP

Variants of: B1
Assay: protein stability index of a GFP-peptide fusion (GPS, HEK-293T) (PSI 1-6); higher = more stable
Conditions: c terminus: a fixed tail appended
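Note: lentivirally expressed fusions sorted by FACS into six bins by GFP to DsRed ratio, PSI derived from sequencing read proportions per bin multiplied by bin number.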

Protein stability index: each site, then its substitutions
C8: S 3.03; T 3.06; V 2.67; W 2.48; Y 2.07
A9: C 1.59; D 2.58; E 3.19; F 1.76; G 1.82; H 1.92; I 2.38; K 2.38; L 2.26; M 1.96; N 2.37; P 2.16; Q 2.25; R 2.66; S 1.98; T 2.14; V 2.17; W 1.45; Y 1.55
C10: A 3.13; D 3.2; E 3.78; F 2.14; G 3.46; H 2.92; I 2.38; K 3.42; L 2.28; M 1.97; N 2.73; P 2.88; Q 2.69; R 2.78; S 2.92; T 2.73; V 2.07; W 1.44; Y 2.17
A11: C 2.06; D 1.98; E 1.87; F 2.11; G 2.08; H 2.33; I 1.94; K 2.36; L 1.74; M 1.83; N 2.35; P 2.29; Q 2.03; R 1.74; S 1.95; T 1.94; V 2.61; W 2.04; Y 2.36
A12: C 1.94; D 2.49; E 2.55; F 2.15; G 2.46; H 2.16; I 1.78; K 1.81; L 1.87; M 1.82; N 2.33; P 2.26; Q 2.12; R 1.93; S 2.48; T 1.94; V 2.16; W 2.08; Y 1.75
S13: A 2.07; C 2.96; D 2.62; E 2.03; F 2.08; G 2.57; H 2.1; I 2; K 2.28; L 1.69; M 1.55; N 1.87; P 1.89; Q 1.96; R 2.21; T 2.1; V 1.49; W 1.98; Y 2.13
S14: A 2.16; C 2.18; D 2.38; E 2.65; F 1.45; G 2.33; H 2.74; I 1.96; K 2.29; L 2; M 1.4; N 2.65; P 2.29; Q 2.19; R 2.03; T 1.93; V 1.53; W 1.92; Y 1.88
D15: A 3.53; C 2.03; E 2.35; F 2.34; G 1.72; H 2.37; I 2.06; K 1.81; L 1.61; M 2.28; N 1.65; P 1.99; Q 2.02; R 1.85; S 2.41; T 2.76; V 1.51; W 1.6; Y 2.38
E16: A 1.44; C 1.83; D 2.06; F 2.68; G 1.8; H 2.36; I 1.82; K 1.53; L 1.58; M 2.42; N 1.92; P 2.01; Q 2.18; R 1.62; S 1.94; T 2.22; V 1.81; W 3.48; Y 2.36
S17: A 2.17; C 2.29; D 2.05; E 2.38; F 1.85; G 2.08; H 1.85; I 2.66; K 1.94; L 1.78
